The data set relates to Escherichia coli TOP10. Put plainly: shrunken log2 fold change of peptide-encoding DNA abundance (4.5 h post-induction vs induction); higher = less antimicrobial activity (less host growth inhibition). As to conditions: time post-induction: 4.5 h; library: site-saturation at positions 5, 18, 19, 20.
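Further: peptides expressed intracellularly from a pBAD plasmid library in pooled LB shake-flask culture, induced with 0.3% L-arabinose, DNA abundance read by NGS, three biological replicates, DESeq2 with apeglm shrinkage.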

As for RRIRGRPPRLPRPRPRPHVDPRP, the “shrunken log2 fold change” value is 0.0583. The figure for RRIRPRPPRLPRPRPRPIKEPRP is -0.00478; for RRIRLRPPRLPRPRPRPMNNPRP it is -0.604. As for RRIRMRPPRLPRPRPRPDRKPRP, the figure is 0.0503; as for RRIRCRPPRLPRPRPRPYGQPRP, -1.33. Turning to RRIRWRPPRLPRPRPRPSVPPRP, the “shrunken log2 fold change” value was determined as 0.045. The figure for RRIRARPPRLPRPRPRPEDIPRP is 0.473. The figure for RRIRLRPPRLPRPRPRPYTVPRP is -0.121; for RRIRIRPPRLPRPRPRPLTPPRP it is -0.284; for RRIRTRPPRLPRPRPRPIKDPRP it is -0.104. As for RRIRNRPPRLPRPRPRPPKMPRP, the figure is -0.168.

In the case of RRIRERPPRLPRPRPRPMDLPRP, the “shrunken log2 fold change” value is -0.199.

As for RRIRKRPPRLPRPRPRPNPKPRP, the “shrunken log2 fold change” value was 0.143. As for RRIRGRPPRLPRPRPRPFSDPRP, the figure is 0.165.

With RRIRQRPPRLPRPRPRPEVIPRP, the “shrunken log2 fold change” value is -0.00663. As for RRIRDRPPRLPRPRPRPELLPRP, the figure is 0.011. As for RRIRNRPPRLPRPRPRPTCAPRP, the figure is 0.161; as for RRIRGRPPRLPRPRPRPLIWPRP, 0.602; as for RRIRTRPPRLPRPRPRPCYMPRP, -0.156. As for RRIRIRPPRLPRPRPRPYAFPRP, the figure is -1.1. As to RRIRNRPPRLPRPRPRPYSCPRP, the “shrunken log2 fold change” value is -1.1. As for RRIRIRPPRLPRPRPRPHLKPRP, the figure is -0.358; as for RRIRLRPPRLPRPRPRPTYDPRP, 0.0466; as for RRIRIRPPRLPRPRPRPWHGPRP, -0.0996. As for RRIRPRPPRLPRPRPRPVCHPRP, the figure is -0.0724; as for RRIRIRPPRLPRPRPRPISSPRP, -0.16. Turning to RRIRDRPPRLPRPRPRPVWFPRP, the “shrunken log2 fold change” value was 1.26.

Consider RRIRGRPPRLPRPRPRPGVSPRP, for which the “shrunken log2 fold change” value stood at 0.889. As for RRIRWRPPRLPRPRPRPSSTPRP, the figure is 0.0549. The figure for RRIRGRPPRLPRPRPRPEKPPRP is 0.316; for RRIRIRPPRLPRPRPRPIWQPRP it is 0.182. Take RRIRERPPRLPRPRPRPVPDPRP: the “shrunken log2 fold change” value came out at 0.268.

As to RRIRMRPPRLPRPRPRPDRHPRP, the “shrunken log2 fold change” value was determined as 0.0052.

Consider RRIRFRPPRLPRPRPRPQMNPRP, for which the “shrunken log2 fold change” value is -0.709. Turning to RRIRIRPPRLPRPRPRPEYCPRP, the “shrunken log2 fold change” value is -0.125. Consider RRIRRRPPRLPRPRPRPVQWPRP, for which the “shrunken log2 fold change” value turned out to be 0.143. In the case of RRIRKRPPRLPRPRPRPCLDPRP, the “shrunken log2 fold change” value is -0.173.

RRIRNRPPRLPRPRPRPNFHPRP: the “shrunken log2 fold change” value is -0.048.

On to RRIRFRPPRLPRPRPRPAMSPRP, for which the “shrunken log2 fold change” value was -0.302. The figure for RRIRLRPPRLPRPRPRPISRPRP is 0.0488. With RRIRMRPPRLPRPRPRPDILPRP, the “shrunken log2 fold change” value was determined as 1.45. The figure for RRIRQRPPRLPRPRPRPLIGPRP is -0.285. Consider RRIRHRPPRLPRPRPRPRCYPRP, for which the “shrunken log2 fold change” value is -0.154. RRIRKRPPRLPRPRPRPRIHPRP: the “shrunken log2 fold change” value was -0.0869. As for RRIRLRPPRLPRPRPRPNLFPRP, the figure is -0.0622; as for RRIRIRPPRLPRPRPRPFDLPRP, -0.348; as for RRIRRRPPRLPRPRPRPIFKPRP, 0.196. The figure for RRIRHRPPRLPRPRPRPRQVPRP is -0.108. As to RRIRQRPPRLPRPRPRPNPYPRP, the “shrunken log2 fold change” value is -0.0811.

RRIRYRPPRLPRPRPRPMFQPRP: the “shrunken log2 fold change” value is -0.136.

In the case of RRIRKRPPRLPRPRPRPYLYPRP, the “shrunken log2 fold change” value is -0.404. The figure for RRIRRRPPRLPRPRPRPLLEPRP is 0.534; for RRIRSRPPRLPRPRPRPPDKPRP it is 0.0307. For RRIRIRPPRLPRPRPRPPIEPRP, the “shrunken log2 fold change” value amounted to 0.0545. Consider RRIRCRPPRLPRPRPRPWNPPRP, for which the “shrunken log2 fold change” value was 0.228. The figure for RRIRHRPPRLPRPRPRPPDGPRP is 0.178; for RRIRQRPPRLPRPRPRPMYTPRP it is -0.639; for RRIRQRPPRLPRPRPRPLRQPRP it is 0.0855. As for RRIRCRPPRLPRPRPRPTRGPRP, the figure is 0.807; as for RRIRRRPPRLPRPRPRPTKFPRP, 0.0982. The figure for RRIRFRPPRLPRPRPRPWCNPRP is -0.267; for RRIRYRPPRLPRPRPRPYWHPRP it is -0.451. RRIRKRPPRLPRPRPRPGSCPRP: the “shrunken log2 fold change” value came to 0.346. The figure for RRIRGRPPRLPRPRPRPCSNPRP is 0.275; for RRIRYRPPRLPRPRPRPNLVPRP it is -0.0754. Regarding RRIRCRPPRLPRPRPRPMCPPRP, the “shrunken log2 fold change” value is -0.312. As for RRIRNRPPRLPRPRPRPKNKPRP, the figure is -0.0876; as for RRIRERPPRLPRPRPRPADQPRP, 0.0155. Turning to RRIRNRPPRLPRPRPRPVRDPRP, the “shrunken log2 fold change” value turned out to be 0.177.

Turning to RRIRCRPPRLPRPRPRPYTCPRP, the “shrunken log2 fold change” value is -0.794. For the sequence RRIRGRPPRLPRPRPRPLQTPRP, the “shrunken log2 fold change” value was determined as 1.59. As for RRIRHRPPRLPRPRPRPDQHPRP, the figure is -0.00237; as for RRIRSRPPRLPRPRPRPPVEPRP, -0.0919.

For RRIRFRPPRLPRPRPRPSMVPRP, the “shrunken log2 fold change” value was -0.509. The figure for RRIRCRPPRLPRPRPRPMMMPRP is 2.91.

On to RRIRIRPPRLPRPRPRPSDFPRP, for which the “shrunken log2 fold change” value is -0.611.

Turning to RRIRARPPRLPRPRPRPQFEPRP, the “shrunken log2 fold change” value was -0.102.

Regarding RRIRHRPPRLPRPRPRPRQQPRP, the “shrunken log2 fold change” value is 0.283.

Take RRIRKRPPRLPRPRPRPWMRPRP: the “shrunken log2 fold change” value worked out at 0.373. With RRIRMRPPRLPRPRPRPYVTPRP, the “shrunken log2 fold change” value was -0.298.

As for RRIRIRPPRLPRPRPRPADVPRP, the “shrunken log2 fold change” value is -0.134. The figure for RRIRGRPPRLPRPRPRPFWDPRP is 0.322; for RRIRPRPPRLPRPRPRPEGTPRP it is 0.0836. As to RRIRCRPPRLPRPRPRPSQTPRP, the “shrunken log2 fold change” value is -0.338. Turning to RRIRRRPPRLPRPRPRPNQKPRP, the “shrunken log2 fold change” value was -0.128. The figure for RRIRFRPPRLPRPRPRPHEPPRP is -0.164; for RRIRFRPPRLPRPRPRPLPTPRP it is 0.336; for RRIRQRPPRLPRPRPRPSHCPRP it is 0.0811. As for RRIRDRPPRLPRPRPRPPSFPRP, the figure is 0.155; as for RRIRYRPPRLPRPRPRPLLTPRP, -0.647; as for RRIRARPPRLPRPRPRPKYWPRP, 0.233. As for RRIRHRPPRLPRPRPRPSYPPRP, the figure is -0.868; as for RRIRQRPPRLPRPRPRPLSAPRP, 0.0436. Turning to RRIRFRPPRLPRPRPRPNQTPRP, the “shrunken log2 fold change” value worked out at 0.275.

In the case of RRIRRRPPRLPRPRPRPSLYPRP, the “shrunken log2 fold change” value is -0.35. As for RRIRMRPPRLPRPRPRPVYAPRP, the figure is 0.243; as for RRIRQRPPRLPRPRPRPEKRPRP, 0.00771. As for RRIRARPPRLPRPRPRPSACPRP, the figure is 0.359; as for RRIRIRPPRLPRPRPRPPRQPRP, 0.337. As to RRIRNRPPRLPRPRPRPLMEPRP, the “shrunken log2 fold change” value is -0.0667. As for RRIRPRPPRLPRPRPRPFSIPRP, the figure is -0.164; as for RRIRRRPPRLPRPRPRPFEYPRP, -0.0276; as for RRIRWRPPRLPRPRPRPTFFPRP, 0.312. The figure for RRIRIRPPRLPRPRPRPWCNPRP is -0.33. The figure for RRIRFRPPRLPRPRPRPWVKPRP is -0.00968.

For the sequence RRIRFRPPRLPRPRPRPSIEPRP, the “shrunken log2 fold change” value is -0.342. As for RRIRDRPPRLPRPRPRPSAKPRP, the figure is 0.23.

In the case of RRIRRRPPRLPRPRPRPAGKPRP, the “shrunken log2 fold change” value worked out at 0.211. The figure for RRIRMRPPRLPRPRPRPFDLPRP is 0.16; for RRIRGRPPRLPRPRPRPVMAPRP it is 0.745; for RRIRPRPPRLPRPRPRPCGSPRP it is -0.023. The figure for RRIRVRPPRLPRPRPRPEFEPRP is -0.0823; for RRIRWRPPRLPRPRPRPGRNPRP it is -0.000528; for RRIRLRPPRLPRPRPRPREPPRP it is 0.139. As for RRIRQRPPRLPRPRPRPLVAPRP, the figure is 0.034; as for RRIRLRPPRLPRPRPRPQDTPRP, -0.409; as for RRIRPRPPRLPRPRPRPIRDPRP, -0.015.

As to RRIRGRPPRLPRPRPRPHSKPRP, the “shrunken log2 fold change” value turned out to be 0.205. As for RRIRVRPPRLPRPRPRPGCHPRP, the figure is 0.363; as for RRIRTRPPRLPRPRPRPKTGPRP, -0.104; as for RRIRTRPPRLPRPRPRPVTQPRP, 0.0354. As for RRIRYRPPRLPRPRPRPLCNPRP, the “shrunken log2 fold change” value was -0.0925. Consider RRIRARPPRLPRPRPRPCNSPRP, for which the “shrunken log2 fold change” value was -0.0983. As for RRIRERPPRLPRPRPRPFASPRP, the figure is 0.00624; as for RRIRKRPPRLPRPRPRPYCVPRP, -0.382.

For the origin of these results see the supplement of paper PMC9112550, “Optimization of the antimicrobial peptide Bac7 by deep mutational scanning” (BMC Biology, 2022).
